Measured values from patent US20250325718A1, “IMMUNOCONJUGATES COMPRISING KALLIKREIN RELATED PEPTIDASE 2 ANTIGEN BINDING DOMAINS AND THEIR USES” (Janssen Biotech, Inc., priority 2021, published 2025).

Test: DTPA challenge of Ac-225 labeled TOPA-[C7]-phenylthiourea-h11B6 (iTLC)
Format: physicochemical
Conditions: for DTPA challenge: chelated Ac-225 (iTLC): labeling reaction mixture, 10 mM DTPA pH 6.5, 37° C., 30 min
Protocol: 0.5 μL of the labeling reaction mixture was also mixed with 10 mM DTPA (pH=6.5, 15 μL) at 37° C. After 30 min, 10 μL of the mixture was spotted on iTLC-SG and developed by 10 mM EDTA. The dried iTLC-SG was left at room temperature for overnight before it was scanned on a Bioscan AR-2000 radio-TLC scanner. Under the elution conditions described herein, TOPA-[C7]-phenylthiourea-h11B6 chelated Ac-225 ^st ayed at the origin and any free Ac-225 would migrate with the solvent to the solvent front.
10 μL of fraction #3 collected after PD-10 column was mixed with 15 μL of 10 mM DTPA solution (pH 6.5), and incubated for 30 min. 10 μL of the mixture was loaded onto an iTLC-SG, which was developed with 10 mM EDTA and dried overnight. It was scanned on a Bioscan AR-2000 radio-TLC scanner.

[1] = 25 mM NaOAc, 0.04% PS-20, pH 5.5 (conjugate 10.4 mg/mL)
[2] = 1.0M NaOAc, 0.04% PS-20 (conjugate 9.36 mg/mL)
[3] = 1.5M NaOAc, 0.04% PS-20 (conjugate 9.36 mg/mL)
[4] = 3M NaOAc buffer (conjugate […])

Substance	DTPA challenge of the purified conjugate: free Ac-225 (iTLC) (fraction #3 after PD-10 column, 10 mM DTPA pH 6.5, 30 min)	DTPA challenge: chelated Ac-225 (iTLC) [1]	DTPA challenge: chelated Ac-225 (iTLC) [2]	DTPA challenge: chelated Ac-225 (iTLC) [3]	DTPA challenge: chelated Ac-225 (iTLC) [4]
Ac-225 labeled TOPA-[C7]-phenylthiourea-h11B6 antibody conjugate [Example 21]	no free Ac-225	99.8%	99.9%	99.9%	99.7%
TOPA-[C7]-phenylthiourea-h11B6 Antibody Conjugate [Example 20]	–	>99%	>99%	>99%	>99%
